Positions count from the first letter of the chain named. In names and notes the source's numbering stands. Read-outs that look alike come from different tables or passages of the source. Blank lines part the entries; values can stand above or below the binder they belong to.
Assays:
[1] = biological target: T1, cynomolgus monkey FcγRIIb extracellular domain with C-terminal His-tag (cynomolgus monkey); assay: SPR, KD(SG1)/KD(variant)
T1 construct: also called cyno FcgRIIb; cynoFcγRIIb
T1 chain: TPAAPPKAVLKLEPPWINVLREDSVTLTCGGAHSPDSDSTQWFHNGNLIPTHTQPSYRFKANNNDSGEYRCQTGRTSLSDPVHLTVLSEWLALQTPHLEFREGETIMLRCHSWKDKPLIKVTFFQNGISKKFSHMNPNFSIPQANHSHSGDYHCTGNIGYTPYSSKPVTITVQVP
Method: (§1) The kinetic analysis of interactions between these antibodies and FcγR was carried out using BIACORE® T200 or BIACORE® 4000 (GE Healthcare). HBS-EP+ (GE Healthcare) was used as the running buffer, and the measurement temperature was set to 25° C. […] After the measurement, the antibody captured on the chip was washed off by allowing reaction with 10 mM glycine-HCl, pH1.5 and 25 mM NaOH so that the chip was regenerated and used repeatedly. The sensorgrams obtained as measurement results were analyzed by the 1:1 Langmuir binding model using the BIACORE® Evaluation Software to calculate the binding rate constant ka (L/mol/s) and dissociation rate constant kd (1/s), and the dissociation constant KD (mol/L) was calculated from these values. […] Regarding such interactions, KD values were calculated using the following 1:1 binding model described in BIACORE® T100 Software Handbook BR1006-48 Edition AE.

[2] = biological target: T2, cynomolgus monkey FcγRIIa3 extracellular domain with C-terminal His-tag (cynomolgus monkey); assay: SPR, KD(SG1)/KD(variant)
T2 construct: also called cyno FcgRIIa3; cynoFcγRIIa3
T2 chain: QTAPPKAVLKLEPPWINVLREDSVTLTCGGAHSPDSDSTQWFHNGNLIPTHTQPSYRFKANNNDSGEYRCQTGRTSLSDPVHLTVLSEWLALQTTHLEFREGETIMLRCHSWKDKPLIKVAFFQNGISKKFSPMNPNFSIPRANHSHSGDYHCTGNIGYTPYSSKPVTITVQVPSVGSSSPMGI
Method: as §1

[3] = biological target: T3, cynomolgus monkey FcγRIIIaS extracellular domain with C-terminal His-tag (cynomolgus monkey, UniProt Q8SPW2 21-206 at identity 1.00)); assay: SPR, KD(SG1)/KD(variant)
T3 construct: also called cyno FcgRIIIaS; cynoFcγRIIIaS
T3 chain: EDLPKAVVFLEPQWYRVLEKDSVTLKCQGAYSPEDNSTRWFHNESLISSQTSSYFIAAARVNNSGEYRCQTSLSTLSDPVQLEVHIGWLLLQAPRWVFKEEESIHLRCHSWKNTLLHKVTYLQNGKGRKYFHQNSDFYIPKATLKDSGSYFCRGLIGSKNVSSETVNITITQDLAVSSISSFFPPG
Method: as §1

[4] = biological target: T3, cynomolgus monkey FcγRIIIaS …; assay: SPR, antibody captured, FcγR analyte
[5] = biological target: T4, human FcγRIIb extracellular domain, C-terminal His-tag (human, UniProt P31994 43-217); assay: SPR (BIACORE), antibody captured, FcgR analyte, 25 C
T4 construct: also called FcgRIIb
T4 sequence: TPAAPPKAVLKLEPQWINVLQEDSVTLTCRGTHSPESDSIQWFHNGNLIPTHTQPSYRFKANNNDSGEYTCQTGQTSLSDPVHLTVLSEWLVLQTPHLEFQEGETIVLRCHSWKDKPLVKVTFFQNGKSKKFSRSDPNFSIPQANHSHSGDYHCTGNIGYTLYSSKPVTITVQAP

[6] = biological target: T5, cynomolgus monkey FcγRIIIaS extracellular domain, His-tagged (cynomolgus monkey, UniProt Q8SPW2 21-206 at identity 1.00)); assay: SPR Biacore, antibody captured, FcgR analyte
T5 construct: also called cyno FcγRIIIaS; cynoFcγRIIIaS; not shown: C-terminal His-tag
T5 chain: T3 chain

[7] = biological target: T6, human FcγRIIb extracellular domain, His-tagged (human, UniProt P31994 43-217); assay: SPR Biacore, KD(SG1)/KD(variant)
T6 construct: also called FcgRIIb (human); not shown: C-terminal His-tag
T6 sequence: T4 sequence

[8] = biological target: T7, cynomolgus monkey FcγRIIa2 extracellular domain, His-tagged (cynomolgus monkey); assay: SPR Biacore, antibody captured, FcgR analyte
T7 construct: also called cyno FcγRIIa2; cynoFcgRIIa2; not shown: C-terminal His-tag
T7 chain: T2 chain with I127K, K130N, P133H, R142Q

[9] = biological target: T8, human FcγRIIaR extracellular domain, His-tagged (human, UniProt P12318 34-217); assay: SPR Biacore, antibody captured, FcgR analyte
T8 construct: also called human FcγRIIa (type R); FcgRIIaR; not shown: C-terminal His-tag
T8 chain: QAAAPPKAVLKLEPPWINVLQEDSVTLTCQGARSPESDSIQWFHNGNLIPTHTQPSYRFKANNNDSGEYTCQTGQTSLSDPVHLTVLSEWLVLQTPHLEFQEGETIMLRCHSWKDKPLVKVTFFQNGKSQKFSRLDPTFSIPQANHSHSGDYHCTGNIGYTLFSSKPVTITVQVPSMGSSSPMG

[10] = biological target: T6, human FcγRIIb extracellular domain, …; assay: SPR Biacore, antibody captured, FcgR analyte
[11] = biological target: T3, cynomolgus monkey FcγRIIIaS …; assay: SPR, antibody captured, FcγR analyte
Method: as §1

[12] = biological target: T9, cynomolgus monkey FcγRIIa2 extracellular domain with C-terminal His-tag (cynomolgus monkey); assay: SPR, KD(SG1)/KD(variant)
T9 construct: also called cyno FcgRIIa2; cynoFcγRIIa2
T9 chain: T2 chain with I127K, K130N, P133H, R142Q
Method: as §1

[13] = biological target: T10, human FcγRIIaR extracellular domain with C-terminal His-tag (human, UniProt P12318 34-217); assay: SPR, KD(SG1)/KD(variant)
T10 construct: also called human FcgRIIaR; FcγRIIa (type R)
T10 chain: T8 chain
Method: as §1

[14] = biological target: T11, human FcγRIIb extracellular domain with C-terminal His-tag (human, UniProt P31994 43-217); assay: SPR, KD(SG1)/KD(variant)
T11 construct: also called human FcgRIIb
T11 sequence: T4 sequence
Method: as §1

[15] = biological target: T12, human FcγRIIIaV extracellular domain with C-terminal His-tag (human, UniProt P08637 17-208); assay: SPR, KD(SG1)/KD(variant)
T12 construct: also called human FcgRIIIaV
T12 sequence (P08637 17-208 F176V): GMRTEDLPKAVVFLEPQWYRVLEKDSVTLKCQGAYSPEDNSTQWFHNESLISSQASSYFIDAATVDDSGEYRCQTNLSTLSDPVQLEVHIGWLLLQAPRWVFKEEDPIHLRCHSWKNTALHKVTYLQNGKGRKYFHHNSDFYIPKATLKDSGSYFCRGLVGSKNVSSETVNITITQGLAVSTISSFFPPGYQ
Method: as §1

[16] = biological target: T3, cynomolgus monkey FcγRIIIaS …; assay: SPR, KD(SG1)/KD(variant)
Method: as §1

[17] = biological target: T13, human FcγRIIaH extracellular domain with C-terminal His-tag (human, UniProt P12318 34-217); assay: SPR, antibody captured, FcγR analyte
T13 construct: also called human FcgRIIaH; FcγRIIa (type H)
T13 sequence: T8 chain with R134H

[18] = biological target: T2, cynomolgus monkey FcγRIIa3 …; assay: SPR, KD(SG1)/KD(variant)
Method: as §1

[19] = biological target: T14, cynomolgus monkey FcγRIIa1 extracellular domain with C-terminal His-tag (cynomolgus monkey); assay: SPR, KD(SG1)/KD(variant)
T14 construct: also called cyno FcgRIIa1; cynoFcγRIIa1
T14 chain: T2 chain with T95P, A121T, S128A, P133H, N135D
Method: as §1

[20] = biological target: T1, cynomolgus monkey FcγRIIb extracellular …; assay: SPR, antibody captured, FcγR analyte
[21] = biological target: T2, cynomolgus monkey FcγRIIa3 …; assay: SPR, antibody captured, FcγR analyte

B1: MS1032LO06-MY201 (antibody, human IgG1, kappa)
heavy: QVTLKESGPVLVKPTETLTLTCTVSGIDLSHDDISWVRQAPGKGLEWVGIISYAGSTYYASWAKGRLTISKDTSKNQVVLTMTNMDPVDTATYYCARGVPAYSHGGDLWGQGTLVTVSSASTKGPSVFPLAPSSKSTSGGTAALGCLVKDYFPEPVTVSWNSGALTSGVHTFPAVLQSSGLYSLSSVVTVPSSSLGTQTYICNVNHKPSNTKVDKKVEPKSCDKTHTCPPCPAPELLNGPSVFLFPPKPKDTLMISRTPEVTCVVVDVSDEDPEVKFNWYVDGVEVHNAKTKPREEQYNSTYRVVSVLTVLHQDWLNGKEYKCKVSNKALPKPIEKTISKAKGQPREPQVYTLPPSREEMTKNQVSLTCLVKGFYPSDIAVEWESNGQPENNYKTTPPVLDSDGSFFLYSKLTVDKSRWQQGNVFSCSVMHEALHNHYTQKSLSLSP
light: DIVMTQSPATLSLSPGERATLSCTSSQSVYHANWLSWFQQKPGQPPKLLIYWASTLAYGVPSRFSGSGSGTDFTLTISSLQPEDAATYYCAGGYGGGRYAFGQGTKVEIKRTVAAPSVFIFPPSDEQLKSGTASVVCLLNNFYPREAKVQWKVDNALQSGNSQESVTEQDSKDSTYSLSSTLTLSKADYEKHKVYACEVTHQGLSSPVTKSFNRGEC
notes: also called M103205H795-MY201; copies: 2 + 2
KD fold (SG1 = 1) [1]: 5 fold
KD fold (SG1 = 1) [2]: 4.5 fold
KD fold (SG1 = 1) [3]: 0.08 fold
Kd [4]: 3.7 µM

B4: M103205H795-MY074/M103202L889-SK1 (antibody, human IgG1, kappa, name in EU numbering)
heavy: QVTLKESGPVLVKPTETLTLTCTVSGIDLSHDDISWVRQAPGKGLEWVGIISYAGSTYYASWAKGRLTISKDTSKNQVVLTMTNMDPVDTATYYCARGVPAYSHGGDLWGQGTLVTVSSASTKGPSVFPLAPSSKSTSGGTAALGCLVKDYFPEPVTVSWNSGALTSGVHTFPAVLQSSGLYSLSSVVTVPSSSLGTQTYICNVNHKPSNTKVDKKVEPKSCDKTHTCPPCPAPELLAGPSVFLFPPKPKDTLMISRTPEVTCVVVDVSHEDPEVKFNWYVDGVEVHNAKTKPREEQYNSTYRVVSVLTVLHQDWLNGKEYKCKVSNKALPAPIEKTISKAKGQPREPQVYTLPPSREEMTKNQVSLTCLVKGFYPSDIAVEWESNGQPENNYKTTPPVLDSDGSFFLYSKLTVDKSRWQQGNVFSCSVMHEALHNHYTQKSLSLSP
light: B1 light
notes: Substitution introduced into M103205H795-SG1; EU numbering
Kd [8]: 2.3 µM
Kd [9]: 0.21 µM
Kd [10]: 3.6 µM

B5: MS1032LO06-MY351 (antibody, human IgG1, kappa)
heavy: B1 heavy with Q313R, D415K
light: B1 light
notes: also called M103205H795-MY351; copies: 2 + 2
Kd [11]: 5.2 µM
KD fold (SG1 = 1) [12]: 3.8 fold
KD fold (SG1 = 1) [13]: 0.8 fold
KD fold (SG1 = 1) [14]: 4.7 fold
KD fold (SG1 = 1) [3]: 0.07 fold
KD fold (SG1 = 1) [15]: 0.03 fold
KD fold (SG1 = 1) [16]: 0.07 fold
Kd [4]: 4.1 µM
Kd [17]: 0.012 µM

B6: MS1032LO06-MY205 (antibody, human IgG1, kappa)
heavy: B1 heavy with Q297L
light: B1 light
notes: also called M103205H795-MY205; copies: 2 + 2
KD fold (SG1 = 1) [18]: 5.2 fold

Now from value to binder:

Kd [5]: 5.8 µM
B2: MS103240H795-SG1/M103202L1045-SK1 (antibody, human IgG1, kappa)
heavy: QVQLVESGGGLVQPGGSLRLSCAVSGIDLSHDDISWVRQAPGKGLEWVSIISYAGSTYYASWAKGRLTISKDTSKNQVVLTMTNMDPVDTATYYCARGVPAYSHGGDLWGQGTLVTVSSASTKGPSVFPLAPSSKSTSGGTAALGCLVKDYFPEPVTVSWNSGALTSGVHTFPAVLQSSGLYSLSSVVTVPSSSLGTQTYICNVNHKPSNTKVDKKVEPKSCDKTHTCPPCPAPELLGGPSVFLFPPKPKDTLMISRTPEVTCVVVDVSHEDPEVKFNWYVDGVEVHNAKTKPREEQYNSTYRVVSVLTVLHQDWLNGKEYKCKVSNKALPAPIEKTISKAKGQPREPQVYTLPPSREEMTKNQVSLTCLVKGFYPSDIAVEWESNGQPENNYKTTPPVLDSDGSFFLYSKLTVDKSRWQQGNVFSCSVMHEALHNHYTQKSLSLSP
light: B1 light with S25T, A32E
notes: Parent of the Fc variants; anti-latent myostatin variable region, human IgG1-type constant region SG1; also called MS1032LO19-SG1; copies: 2 + 2

Kd [6]: 12 µM
KD fold (SG1 = 1) [7]: 6.6 fold
B3: M103205H795-MY001/M103202L889-SK1 (antibody, human IgG1, kappa, name in EU numbering)
heavy: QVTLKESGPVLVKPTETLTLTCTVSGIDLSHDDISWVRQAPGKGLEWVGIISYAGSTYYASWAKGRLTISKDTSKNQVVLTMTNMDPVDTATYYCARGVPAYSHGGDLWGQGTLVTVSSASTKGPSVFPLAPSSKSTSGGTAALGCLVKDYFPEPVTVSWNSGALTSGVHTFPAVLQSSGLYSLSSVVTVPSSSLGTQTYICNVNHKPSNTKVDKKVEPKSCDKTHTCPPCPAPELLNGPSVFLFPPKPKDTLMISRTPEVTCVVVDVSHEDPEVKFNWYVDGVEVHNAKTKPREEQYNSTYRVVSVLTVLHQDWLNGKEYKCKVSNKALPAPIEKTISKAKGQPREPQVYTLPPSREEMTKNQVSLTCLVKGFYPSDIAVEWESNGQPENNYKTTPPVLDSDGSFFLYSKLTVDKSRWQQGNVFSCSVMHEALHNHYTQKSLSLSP
light: B1 light
notes: as for B4

KD fold (SG1 = 1) [2]: 2.5 fold
KD fold (SG1 = 1) [12]: 3.9 fold
KD fold (SG1 = 1) [3]: 0.08 fold
KD fold (SG1 = 1) [19]: 2.5 fold
Kd [20]: 0.55 µM
Kd [21]: 3.5 µM
Kd [4]: 4.4 µM
B7: MS1032LO06-PK56 (antibody, human IgG1, kappa)
heavy: B1 heavy with Q313R, P345R, D415R
light: B1 light
notes: MY201 with Q311R/P343R/D413R; also called MS103205H795-PK56; M103205H795-MY56

From patent US20250076311A1 (Chugai, published 2025)
